{"source": "patent US20080233097A1", "about": "“Phosphorylation Site Of Mitogen-Activated Protein Kinases, Modified Proteins And Applications” (UNIVERSIDAD AUTONOMA DE MADRID, priority 2005, published 2008)", "molecules": {"B1": {"name": "p38T123D: p38α mutant; aspartic acid mimics the constitutively phosphorylated form of threonine 123 (protein, UniProt P47811 2-360, looked up, variant T123D)", "Mitogen-activated protein …": "SQERPTFYRQELNKTIWEVPERYQNLSPVGSGAYGSVCAAFDTKTGHRVAVKKLSRPFQSIIHAKRTYRELRLLKHMKHENVIGLLDVFTPARSLEEFNDVYLVTHLMGADLNNIVKCQKLDDDHVQFLIYQILRGLKYIHSADIIHRDLKPSNLAVNEDCELKILDFGLARHTDDEMTGYVATRWYRAPEIMLNWMHYNQTVDIWSVGCIMAELLTGRTLFPGTDHIDQLKLILRLVGTPGAELLKKISSESARNYIQSLAQMPKMNFANVFIGANPLAVDLLEKMLVLDSDKRITAAQALAHAYFAQYHDPDDEPVADPYDQSFESRDLLIDEWKSLTYDEVISFVPPPLDQEEMES", "modifications": "GST or Flag tag in some forms"}}, "key": {"MAPKAPK2 (MK2)": {"target": "T1, MAPKAPK2 (MK2) (Homo sapiens, UniProt P49137)", "T1 construct": "made in house", "T1 sequence (P49137 with tags, fused parts or gaps)": "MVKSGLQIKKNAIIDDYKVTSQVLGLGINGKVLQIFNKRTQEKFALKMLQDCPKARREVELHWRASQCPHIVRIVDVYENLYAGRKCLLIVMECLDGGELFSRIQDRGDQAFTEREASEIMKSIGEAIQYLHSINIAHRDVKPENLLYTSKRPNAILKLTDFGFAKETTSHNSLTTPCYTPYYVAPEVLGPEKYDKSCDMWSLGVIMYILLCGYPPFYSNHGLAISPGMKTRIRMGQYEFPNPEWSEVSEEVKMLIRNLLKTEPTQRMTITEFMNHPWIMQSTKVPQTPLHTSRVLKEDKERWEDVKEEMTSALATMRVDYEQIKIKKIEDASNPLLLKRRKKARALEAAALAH", "test": "GST pull-down of His-tagged MAPKAPK2", "format": "binding", "conditions": "GST-p38 300 nM, His-MK2 20 nM; vs T123A mutant or wild type", "description": "(§1) Purified GST-p38 and its T123 mutants (300 nM) were incubated in the presence of purified MKK6 (3 nM) or His-tagged MAPKAPK2 ([…], 20 nM) in a pull down assay with GST as a negative control. Sedimented proteins were developed by Western Blot using anti-MKK6, anti-Histidine (for His-MK2) or anti-GST (for total amounts of GST-p38s) antibodies. In all panels, results are representative of three independent experiments performed in duplicate.\n(§2) The proteins GST, GST-p38 wt, GST-p38T123A and GST-p38T123D were bacterially expressed and isolated using Gluthatione-Sepharose 4B (GE-Amersham) following standard procedures (Murga, C. et al. High affinity binding of beta-adrenergic receptor kinase to microsomal membranes. Modulation of the activity of bound kinase by heterotrimeric G protein activation. J Biol Chem 271, 985-994 (1996)). His-MAPKAPK2 was purified using Probond resin (Invitrogen) following manufacturer's indications. MKK6CAM was purchased from Upstate Biotech. The amount of proteins detailed in the legend to each figure were incubated in binding buffer (25 mM Tris pH 7.5, 0.25 M NaCl, 10 mM MgCl2, 5 mM NaF and 0.5% BSA) for 30 min at 30° C. with constant shaking. ATP (50 μM) was added for MAPKAPK2 pull downs. Precipitates were washed three times (10 ml) with the same buffer containing 0.5% Triton X100. Precipitated complexes were resolved by SDS-PAGE and developed by Western Blot."}, "MKK6CAM": {"test_system": "MKK6CAM", "test": "p38 activation by MKK6CAM in situ (anti-phospho-p38) in HEK293 cells", "format": "cell-based, human", "conditions": "HEK293, 150 ng p38 plasmid, 50 ng pCDNA3-MKK6CAM", "description": "In overexpression experiments analogous to those described previously, HEK293 cells, seeded in M6 and always in duplicate, were transfected with: 150 ng of pCDNA3-Flag-p38α WT, or pCDNA3-Flag-p38α T123D and 50 ng of pCDNA3-MKK6CAM, (or empty pCDNA3). p38 activation with the anti-phospho-p38 antibody was evaluated. For each of the two isoforms, the activation by MKK6CAM was in reference to the baseline situation, obtaining a certain activation level. 100% activation was established as the p38α WT activation in each experiment. Data (±SEM) of three independent experiments are shown. A two-sided Student's-t test was carried out and *p<0.0001 was obtained. The right-hand side panels (Western blot) illustrate one of the experiments. […]\nThe HE 293 cells, generally subjected to starvation (medium without serum) of a variable duration: 2 hours in the case of p38 and all night in the case of ERK, were stimulated and, after processing the lysate cells, the immunodetection of the phosphoproteins was carried out with the phospho-specific antibodies of the activation segments of both proteins. […] The quantification of the bands was carried out in a laser densitometer. In all the cases, the values obtained for the bands detected with the anti-phospho-protein antibody were normalized in relation to the total amount of p38 or ERK expressed in the cells. […]"}, "MKK6": {"test_system": "MKK6", "test": "GST pull-down of purified MKK6", "format": "binding", "conditions": "GST-p38 300 nM, MKK6 3 nM; vs T123A mutant or wild type", "description": "as §1, §2"}}}
{"molecule": "B1", "values": [{"measurement": "ability to associate to MK2", "setting": "MAPKAPK2 (MK2)", "value": "severely impaired"}, {"measurement": "activation by MKK6CAM versus Flag-p38WT", "setting": "MKK6CAM", "value": "considerable reduction"}, {"measurement": "ability to associate to MKK6", "setting": "MKK6", "value": "severely impaired"}]}
